From PMC2756588

T1: Abp1, P15891
T1 sequence (P15891 535-592, looked up): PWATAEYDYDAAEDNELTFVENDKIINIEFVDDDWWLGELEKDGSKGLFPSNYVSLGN

T2: Bbc1, P47068
T2 sequence (P47068 1-78, looked up): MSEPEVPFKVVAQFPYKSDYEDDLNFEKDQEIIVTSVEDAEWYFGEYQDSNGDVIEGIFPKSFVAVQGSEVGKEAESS

T3: Boi1, P38041
T3 sequence (P38041 1-86, looked up): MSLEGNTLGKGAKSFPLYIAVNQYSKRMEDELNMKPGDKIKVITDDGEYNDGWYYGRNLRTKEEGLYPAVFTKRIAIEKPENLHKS

T4: Boi2, P39969
T4 sequence (P39969 32-116, looked up): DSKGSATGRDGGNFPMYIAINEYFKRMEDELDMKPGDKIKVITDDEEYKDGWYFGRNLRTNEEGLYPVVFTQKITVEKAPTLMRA

T5: Bud14, P27637
T5 sequence (P27637 247-328, looked up): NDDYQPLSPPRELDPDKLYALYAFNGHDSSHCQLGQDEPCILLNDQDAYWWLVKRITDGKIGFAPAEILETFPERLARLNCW

T6: Bzz1-1, P38822
T6 sequence (P38822 478-572, looked up): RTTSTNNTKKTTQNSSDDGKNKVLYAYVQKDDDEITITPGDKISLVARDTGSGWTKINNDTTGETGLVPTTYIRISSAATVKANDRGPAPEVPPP

T7: Bzz1-2, P38822
T7 sequence (P38822 568-633, looked up): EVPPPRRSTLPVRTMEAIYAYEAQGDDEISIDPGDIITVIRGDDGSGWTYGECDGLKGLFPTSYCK

T8: Cdc25, P04821
T8 sequence (P04821 50-136, looked up): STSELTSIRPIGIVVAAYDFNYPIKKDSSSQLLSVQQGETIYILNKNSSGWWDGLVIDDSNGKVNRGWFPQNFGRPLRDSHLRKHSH

T9: Cyk3, Q07533
T9 sequence (Q07533 1-83, looked up): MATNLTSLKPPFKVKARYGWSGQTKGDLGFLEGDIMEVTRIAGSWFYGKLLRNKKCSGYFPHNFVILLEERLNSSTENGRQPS

T10: Fus1, P11710
T10 sequence (P11710 432-512, looked up): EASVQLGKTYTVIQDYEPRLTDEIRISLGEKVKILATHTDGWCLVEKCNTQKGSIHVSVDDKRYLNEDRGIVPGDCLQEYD

T11: Hof1, Q05080
T11 sequence (Q05080 590-669, looked up): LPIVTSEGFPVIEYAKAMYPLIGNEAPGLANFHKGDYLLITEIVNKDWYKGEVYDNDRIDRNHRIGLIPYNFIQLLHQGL

T12: Hse1, P38753
T12 sequence (P38753 208-285, looked up): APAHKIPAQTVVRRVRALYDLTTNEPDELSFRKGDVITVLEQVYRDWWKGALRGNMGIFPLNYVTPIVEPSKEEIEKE

T13: Lsb1, P53281
T13 sequence (P53281 45-122, looked up): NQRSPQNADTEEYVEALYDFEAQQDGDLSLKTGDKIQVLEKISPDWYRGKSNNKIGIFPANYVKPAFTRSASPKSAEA

T14: Lsb3, P43603
T14 sequence (P43603 385-451, looked up): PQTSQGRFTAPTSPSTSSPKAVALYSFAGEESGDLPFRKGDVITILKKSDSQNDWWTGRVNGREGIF

T15: Lsb4, P32793
T15 sequence (P32793 402-468, looked up): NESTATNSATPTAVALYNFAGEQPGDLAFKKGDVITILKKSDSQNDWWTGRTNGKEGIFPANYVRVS

T16: Myo5, Q04439
T16 sequence (Q04439 1072-1160, looked up): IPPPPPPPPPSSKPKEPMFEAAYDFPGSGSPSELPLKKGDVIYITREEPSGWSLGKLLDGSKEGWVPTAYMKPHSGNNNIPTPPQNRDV

T17: Nbp2, Q12163
T17 sequence (Q12163 103-180, looked up): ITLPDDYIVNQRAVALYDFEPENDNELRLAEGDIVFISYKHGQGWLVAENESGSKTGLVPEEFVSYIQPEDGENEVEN

T18: Pex13, P80667
T18 sequence (P80667 295-386, looked up): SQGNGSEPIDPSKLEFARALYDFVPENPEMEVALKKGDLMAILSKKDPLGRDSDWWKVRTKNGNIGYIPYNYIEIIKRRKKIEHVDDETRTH

T19: Pin3, Q06449
T19 sequence (Q06449 53-122, looked up): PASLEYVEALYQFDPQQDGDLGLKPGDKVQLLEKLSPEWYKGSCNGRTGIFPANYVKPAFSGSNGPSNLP

T20: Sla1-2, P32790
T20 sequence (P32790 60-140, looked up): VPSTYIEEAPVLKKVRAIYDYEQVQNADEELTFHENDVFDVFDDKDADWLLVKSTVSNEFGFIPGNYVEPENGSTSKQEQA

T21: Sla1-3, P32790
T21 sequence (P32790 344-424, looked up): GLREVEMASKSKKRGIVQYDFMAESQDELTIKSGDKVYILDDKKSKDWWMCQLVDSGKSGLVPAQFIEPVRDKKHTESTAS

B1: unnamed (peptide)
chain: GKLKHIPRRPYEIER
B2: unnamed (peptide)
chain: KRRTSLFPWLHKPGI
B3: unnamed (peptide)
chain: WRPRIVPILPYITRL
B4: unnamed (peptide)
chain: KLSRGRYGLPLSSRP

Key:
Assay in all cases: SPOT array
Abp1, P15891 = biological target: T1, Abp1, P15891; details: median of control spots 935
Bbc1, P47068 = biological target: T2, Bbc1, P47068; details: median of control spots 796
Bem1-1, P29366 = details: median of control spots 4282
Bem1-2, P29366 = details: median of control spots 4347
Boi1, P38041 = biological target: T3, Boi1, P38041; details: median of control spots 1162
Boi2, P39969 = biological target: T4, Boi2, P39969; details: median of control spots 1161
Bud14, P27637 = biological target: T5, Bud14, P27637; details: median of control spots 956
Bzz1-1, P38822 = biological target: T6, Bzz1-1, P38822; details: median of control spots 4446
Bzz1-2, P38822 = biological target: T7, Bzz1-2, P38822; details: median of control spots 4538
Cdc25, P04821 = biological target: T8, Cdc25, P04821; details: median of control spots 969
Cyk3, Q07533 = biological target: T9, Cyk3, Q07533; details: median of control spots 1451
Fus1, P11710 = biological target: T10, Fus1, P11710; details: median of control spots 1200
GST = details: median of control spots 978
Hof1, Q05080 = biological target: T11, Hof1, Q05080; details: median of control spots 4086
Hse1, P38753 = biological target: T12, Hse1, P38753; details: median of control spots 1727
Lsb1, P53281 = biological target: T13, Lsb1, P53281; details: median of control spots 388
Lsb3, P43603 = biological target: T14, Lsb3, P43603; details: median of control spots 406
Lsb4, P32793 = biological target: T15, Lsb4, P32793; details: median of control spots 397
Myo3, P36006 = details: median of control spots 468
Myo5, Q04439 = biological target: T16, Myo5, Q04439; details: median of control spots 471
Nbp2, Q12163 = biological target: T17, Nbp2, Q12163; details: median of control spots 357
Pex13, P80667 = biological target: T18, Pex13, P80667; details: median of control spots 1341
Pin3, Q06449 = biological target: T19, Pin3, Q06449; details: median of control spots 2171
Rvs167, P39743 = details: median of control spots 2707
Sho1, P40073 = details: median of control spots 1148
Sla1-2, P32790 = biological target: T20, Sla1-2, P32790; details: median of control spots 712
Sla1-3, P32790 = biological target: T21, Sla1-3, P32790; details: median of control spots 5475

Chain of Bem1-1, P29366 (P29366 55-141): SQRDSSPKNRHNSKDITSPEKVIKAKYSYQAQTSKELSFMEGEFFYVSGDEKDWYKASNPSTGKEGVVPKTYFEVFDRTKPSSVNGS
Chain of Rvs167, P39743 (P39743 419-482): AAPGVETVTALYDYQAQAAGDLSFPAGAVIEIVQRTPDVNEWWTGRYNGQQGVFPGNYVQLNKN
Chain of Bem1-2, P29366 (P29366 139-227): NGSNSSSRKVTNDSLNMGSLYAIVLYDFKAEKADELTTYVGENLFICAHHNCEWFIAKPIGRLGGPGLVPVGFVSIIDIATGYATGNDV
Chain of Sho1, P40073 (P40073 287-367): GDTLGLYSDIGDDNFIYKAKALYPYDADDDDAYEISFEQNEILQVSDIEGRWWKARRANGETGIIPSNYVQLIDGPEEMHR

Binder	SPOT intensity (Abp1, P15891)	SPOT intensity (Bbc1, P47068)	SPOT intensity (Bem1-1, P29366)	SPOT intensity (Bem1-2, P29366)	SPOT intensity (Boi1, P38041)	SPOT intensity (Boi2, P39969)	SPOT intensity (Bud14, P27637)	SPOT intensity (Bzz1-1, P38822)	SPOT intensity (Bzz1-2, P38822)	SPOT intensity (Cdc25, P04821)	SPOT intensity (Cyk3, Q07533)	SPOT intensity (Fus1, P11710)	SPOT intensity (GST)	SPOT intensity (Hof1, Q05080)	SPOT intensity (Hse1, P38753)	SPOT intensity (Lsb1, P53281)	SPOT intensity (Lsb3, P43603)	SPOT intensity (Lsb4, P32793)	SPOT intensity (Myo3, P36006)	SPOT intensity (Myo5, Q04439)	further results
B1	4	13	0	0	0	0	0	0	2	0	0	0	1	1	1	5	0	0	0	0	SPOT intensity (Nbp2, Q12163): 0; SPOT intensity (Pex13, P80667): 2; SPOT intensity (Pin3, Q06449): 4; SPOT intensity (Rvs167, P39743): 1; SPOT intensity (Sho1, P40073): 9; SPOT intensity (Sla1-2, P32790): 0; SPOT intensity (Sla1-3, P32790): 16
B2	25	39	0	0	3	0	3	0	3	18	0	31	0	5	19	0	0	0	0	0	SPOT intensity (Nbp2, Q12163): 57; SPOT intensity (Pex13, P80667): 4; SPOT intensity (Pin3, Q06449): 0; SPOT intensity (Rvs167, P39743): 0; SPOT intensity (Sho1, P40073): 61; SPOT intensity (Sla1-2, P32790): 0; SPOT intensity (Sla1-3, P32790): 20
B3	10	87	0	94	0	0	2	0	0	14	0	8	0	770	11	22	0	6	0	0	SPOT intensity (Nbp2, Q12163): 1; SPOT intensity (Pex13, P80667): 10; SPOT intensity (Pin3, Q06449): 8; SPOT intensity (Rvs167, P39743): 36; SPOT intensity (Sho1, P40073): 3; SPOT intensity (Sla1-2, P32790): 0; SPOT intensity (Sla1-3, P32790): 9
B4	26	9	1	0	4	1	4	0	7	12	0	3	0	8	10	175	4	0	1	0	SPOT intensity (Nbp2, Q12163): 2; SPOT intensity (Pex13, P80667): 3; SPOT intensity (Pin3, Q06449): 7; SPOT intensity (Rvs167, P39743): 3; SPOT intensity (Sho1, P40073): 31; SPOT intensity (Sla1-2, P32790): 1; SPOT intensity (Sla1-3, P32790): 31
